These results are taken from patent US20200157212A1 (Pfizer, published 2020).

One experiment addresses T1, Human ROBO2 Ig1-Ig2-His (human, UniProt Q9HCK4 31-220).
T1 construct: the His tag is named only in the SPR paragraphs; the Octet and ELISA paragraphs print 'ROBO2 Ig1-Ig2' without a tag; also called ROBO2 Ig1-2; Human ROBO2 Ig 1,2
T1 sequence: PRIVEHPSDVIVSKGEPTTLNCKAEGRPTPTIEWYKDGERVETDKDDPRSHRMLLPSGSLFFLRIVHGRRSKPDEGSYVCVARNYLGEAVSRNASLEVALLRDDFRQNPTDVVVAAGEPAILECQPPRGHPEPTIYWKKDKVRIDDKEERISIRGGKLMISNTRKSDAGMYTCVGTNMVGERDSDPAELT
In words: SPR, antibody on CM5 chip, ROBO2 Ig1-Ig2-His. The procedure: Based upon several criteria, Abcs25 and Abcs35 were selected for further characterization. Using flow cytometry, improvement in the binding EC₅₀ to human ROBO2 relative to the parental 93H2 was evaluated. Starting at 6.7 nM, 11-point, 3-fold dilution series were made for each antibody and used to stain HEK293 overexpressing human ROBO2 as described above for the ROBO2 fold selectivity (Example 2). […] In addition to measuring improved binding to human ROBO2, it was important to ensure that high affinity binding to both cynomolgus monkey ROBO2 and rat ROBO2 was maintained. Using HEK293 cells overexpressing either cynomolgus monkey ROBO2 or rat ROBO2, the relative dose-dependent binding of 93H2, Abcs25 and Abcs35 was evaluated as described above. High affinity binding to both cynomolgus monkey and rat ROBO2 was maintained in Abcs25 and Abcs35 (Table 4). […] Briefly, Abcs35 was immobilized to 300 resonance units (RU) on a CM5 chip. Association of ROBO2 Ig1-Ig2-His (ROBO2) was measured over 5 minutes and dissociation was followed for a period of 10 minutes.
Affinity was measured by standard SPR methods as described in Example 3. Briefly, antibodies were immobilized to a specific measure of resonance units (RU) on a CM5 chip. Association of ROBO2 Ig1-Ig2-His (ROBO2) and dissociation will be followed for a period of time.
For orientation: In SPR one partner is held on a chip, and binding of the other changes the refractive index at the surface.

The target of experiment [1] is T2, Terbium (Tb) labeled-SNAP tagged ROBO2 expressed on HEK293 cells (Homo sapiens (Human), UniProt Q9HCK4 22-1378, terbium label on the SNAP tag).
T2 construct: also called Tb-labeled ROBO2 cells; ROBO2 expressing cells; not shown: SNAP tag
T2 sequence: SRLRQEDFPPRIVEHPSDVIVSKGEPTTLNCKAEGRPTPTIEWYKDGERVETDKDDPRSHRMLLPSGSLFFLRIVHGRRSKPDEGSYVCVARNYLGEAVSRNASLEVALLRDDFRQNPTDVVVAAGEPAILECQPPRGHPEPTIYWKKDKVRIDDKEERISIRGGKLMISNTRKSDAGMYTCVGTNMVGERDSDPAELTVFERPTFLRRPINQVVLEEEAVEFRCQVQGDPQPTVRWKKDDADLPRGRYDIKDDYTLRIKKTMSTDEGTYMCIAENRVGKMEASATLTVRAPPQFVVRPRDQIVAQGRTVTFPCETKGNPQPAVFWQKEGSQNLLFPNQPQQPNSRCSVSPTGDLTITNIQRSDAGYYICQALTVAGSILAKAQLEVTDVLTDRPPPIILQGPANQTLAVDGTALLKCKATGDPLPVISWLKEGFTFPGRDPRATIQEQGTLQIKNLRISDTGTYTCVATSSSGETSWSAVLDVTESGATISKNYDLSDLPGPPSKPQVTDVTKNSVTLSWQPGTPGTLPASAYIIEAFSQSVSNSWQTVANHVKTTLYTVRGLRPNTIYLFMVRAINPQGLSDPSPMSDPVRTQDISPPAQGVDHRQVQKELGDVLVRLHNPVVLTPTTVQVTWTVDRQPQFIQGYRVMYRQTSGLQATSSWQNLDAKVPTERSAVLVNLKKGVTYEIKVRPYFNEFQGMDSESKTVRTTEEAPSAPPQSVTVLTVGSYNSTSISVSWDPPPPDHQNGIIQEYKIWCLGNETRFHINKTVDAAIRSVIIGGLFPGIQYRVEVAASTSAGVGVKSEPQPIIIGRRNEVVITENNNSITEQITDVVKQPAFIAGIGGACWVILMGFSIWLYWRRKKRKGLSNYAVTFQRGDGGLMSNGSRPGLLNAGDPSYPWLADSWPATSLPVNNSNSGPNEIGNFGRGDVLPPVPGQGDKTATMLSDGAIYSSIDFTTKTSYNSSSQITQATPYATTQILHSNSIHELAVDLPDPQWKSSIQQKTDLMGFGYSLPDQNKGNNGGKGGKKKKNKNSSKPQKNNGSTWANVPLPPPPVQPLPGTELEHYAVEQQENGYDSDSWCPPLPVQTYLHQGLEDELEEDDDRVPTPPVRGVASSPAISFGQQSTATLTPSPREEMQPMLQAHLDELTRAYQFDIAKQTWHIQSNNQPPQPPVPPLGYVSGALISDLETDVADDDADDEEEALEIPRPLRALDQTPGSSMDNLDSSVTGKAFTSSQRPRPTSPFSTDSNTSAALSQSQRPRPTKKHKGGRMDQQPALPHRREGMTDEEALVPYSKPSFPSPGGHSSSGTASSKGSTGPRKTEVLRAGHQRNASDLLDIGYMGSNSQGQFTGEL
Kind of experiment: HTRF competition, competitor d2-SLIT2-N, ROBO2 HEK293 cells. The procedure:
A ROBO2-SLIT2-N homogenous time resolved fluorescence (HTRF) assay was used to identify antibodies that were capable of blocking SLIT2-N binding to ROBO2. In this assay, terbium (Tb) labeled-SNAP tagged ROBO2 expressing HEK293 cells were incubated with 5 nM d2-labeled SLIT-2N in the presence of 1 nM anti-ROBO2 antibodies for 1 hour. After incubation, fluorescence at 665 nm and 620 nm was measured on an Envision multilabel plate reader. […] Maximal signal was defined as the HTRF ratio of Tb-labeled ROBO2 cells with d2-labeled SLIT2-N in the absence of antibody, the minimum signal was defined as the HTRF ratio of Tb-labeled ROBO2 expressing HEK293 cells only. One nanomolar (nM) parental antibody, 93H2, was unable to block the HTRF assay, therefore this concentration was selected to identify clones with a higher affinity than 93H2 (Table 2, HTRF Ratio column). […] Antibodies derived from chain (Abcs series) or CDR shuffling (CTIR-2 series) were evaluated in 11-point, 5-fold dilution series with a top concentration of 1500 nM (Table 2 HTRF IC₅₀).
Neutralization of SLIT2-N binding to ROBO2 was assessed ROBO2:SLIT2-N homogenous time resolved fluorescence (HTRF) assay as described in Example 2. Briefly the HTRF assay was performed as follows: terbium (Tb) labeled-SNAP tagged ROBO2 expressing HEK293 cells were incubated with d2-labeled SLIT-2N in the presence of anti-ROBO2 antibodies for 1 hour. After incubation, fluorescence at 665 nm and 620 nm was measured on an Envision multi-label plate reader. […] Maximal signal was defined as the HTRF ratio of Tb-labeled ROBO2 cells with d2-labeled SLIT2-N in the absence of antibody, the minimum signal was defined as the HTRF ratio of Tb-labeled ROBO2 expressing HEK293 cells only.

By Kd is commonly meant the free concentration of one partner at which half of the binding sites on the other are occupied at equilibrium, for simple one-to-one binding. By IC50 is commonly meant the concentration needed to halve the response being measured. Low values mean inhibition by little substance, high ones a need for much substance.

Positions count from the first letter of the chain named.

B1: Abcs35 (antibody, human IgG1, kappa)
heavy: EVQLVQSGAEVKKPGASVKVSCKASGYTFTGYYMHWVRQAPGQGLEWMGWINPKNGDTEFPQKFQGRVTMTRDTSITTAYMDLSRLRSDDTAVYYCARESGDDAFDIWGQGTMVTVSSASTKGPSVFPLAPSSKSTSGGTAALGCLVKDYFPEPVTVSWNSGALTSGVHTFPAVLQSSGLYSLSSVVTVPSSSLGTQTYICNVNHKPSNTKVDKKVEPKSCDKTHTCPPCPAPEAAGAPSVFLFPPKPKDTLMISRTPEVTCVVVDVSHEDPEVKFNWYVDGVEVHNAKTKPREEQYNSTYRVVSVLTVLHQDWLNGKEYKCKVSNKALPAPIEKTISKAKGQPREPQVYTLPPSREEMTKNQVSLTCLVKGFYPSDIAVEWESNGQPENNYKTTPPVLDSDGSFFLYSKLTVDKSRWQQGNVFSCSVMHEALHNHYTQKSLSLSPGK
light: DIVMTQSPSSLSASVGDRVTITCRASQSISSYLNWYQQKPGKAPKLLIYAASSLQSGVPSRFSGSGSGTDFTLTISSLQPEDFATYYCQQSVGLFFGGGTKVEIKRTVAAPSVFIFPPSDEQLKSGTASVVCLLNNFYPREAKVQWKVDNALQSGNSQESVTEQDSKDSTYSLSSTLTLSKADYEKHKVYACEVTHQGLSSPVTKSFNRGEC
notes: fully human IgG1; VH of Ab96 with VL of Ab123
In the experiment with Human ROBO2 Ig1-Ig2-His, B1 registered a Kd of 0.0857 nM. Moreover, the IC50 in experiment [1] came out at 0.0761 nM.

B2: Abcs35-J (antibody, human IgG1, kappa)
heavy: B1 heavy with D82E
light: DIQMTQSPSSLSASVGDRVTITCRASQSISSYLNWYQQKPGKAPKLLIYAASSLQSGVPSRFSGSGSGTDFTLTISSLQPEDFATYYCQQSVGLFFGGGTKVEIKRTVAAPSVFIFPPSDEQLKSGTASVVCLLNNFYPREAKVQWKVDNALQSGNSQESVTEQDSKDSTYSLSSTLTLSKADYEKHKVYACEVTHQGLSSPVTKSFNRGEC
notes: germlined variant of Abcs35; also called ABCS-J
B2 showed a Kd with Human ROBO2 Ig1-Ig2-His of 0.0939 nM. This molecule gave an IC50 in experiment [1] of 0.0744 nM.
